Series [1] addresses Mycobacterium tuberculosis SecA1(S945C) labeled with Cy5 (Mycobacterium tuberculosis strain H37Rv) (UniProt P9WGP5). In words: MST; as the low salt experiment, but at moderate salt concentration (150 mM KCl); dimer to monomers.
The target is the same in series [2]. In words: MST; Monolith NT.115; unlabeled protein (1 nM to 5 μM) titrated into 25 nM Cy5-labeled protein, mixed in 300 mM KCl, then diluted into low salt buffer (25 mM HEPES-KOH pH 7.5, 30 mM KCl, 2 mM MgCl2, 50 mM arginine); Hill fit, apparent Kd; dimer to monomers.
The target in series [3] is Mycobacterium tuberculosis SecA2(S802C) labeled with Cy5 (Mycobacterium tuberculosis strain H37Rv) (UniProt P9WGP3). The description is as above.
Series [4] has as its target Mycobacterium tuberculosis SecA1(S945C) labeled with Cy5, P9WGP5. In words: fluorescence cross-correlation spectroscopy (FCCS); SecA1-Cy5 and SecA2-AF488 mixed 1:1 in 300 mM KCl, exchanged on NAP5 into 25 mM HEPES-KOH pH 7.5, 30 mM KCl, 2 mM MgCl2, 50 mM arginine; 10 min at room temperature; LSM710 confocal microscope. The settings on record: other: fluorescence cross-correlation spectroscopy (FCCS).

Series [5] concerns the target T1, Mycobacterium tuberculosis SecA2(S802C) labeled with Cy5 (Mycobacterium tuberculosis strain H37Rv, UniProt P9WGP3 31-808, S802C, Cy5 (Cy5-maleimide label)).
T1 construct: also called SecA2-Cy5; PIP154
T1 sequence: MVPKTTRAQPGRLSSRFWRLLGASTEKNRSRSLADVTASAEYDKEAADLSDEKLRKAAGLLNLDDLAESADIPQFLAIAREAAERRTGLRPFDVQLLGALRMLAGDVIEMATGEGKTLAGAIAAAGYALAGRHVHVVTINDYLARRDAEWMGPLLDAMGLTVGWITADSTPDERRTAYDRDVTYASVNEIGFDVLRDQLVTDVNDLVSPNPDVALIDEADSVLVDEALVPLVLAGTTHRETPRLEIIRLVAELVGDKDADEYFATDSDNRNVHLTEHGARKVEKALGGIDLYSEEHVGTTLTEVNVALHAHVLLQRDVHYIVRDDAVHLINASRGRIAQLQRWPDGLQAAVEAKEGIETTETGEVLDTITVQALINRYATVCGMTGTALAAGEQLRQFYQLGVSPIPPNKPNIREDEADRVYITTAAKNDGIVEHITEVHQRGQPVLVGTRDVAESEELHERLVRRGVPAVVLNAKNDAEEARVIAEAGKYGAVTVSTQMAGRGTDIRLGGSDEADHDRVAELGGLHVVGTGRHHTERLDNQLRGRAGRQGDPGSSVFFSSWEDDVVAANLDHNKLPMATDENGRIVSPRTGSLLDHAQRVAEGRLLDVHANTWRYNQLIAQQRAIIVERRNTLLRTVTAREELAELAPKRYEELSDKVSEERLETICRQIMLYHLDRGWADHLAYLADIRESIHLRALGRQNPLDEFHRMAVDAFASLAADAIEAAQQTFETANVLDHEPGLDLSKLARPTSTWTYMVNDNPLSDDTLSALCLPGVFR
In words: MST; as the low salt experiment, but at moderate salt concentration (150 mM KCl); dimer to monomers. As to conditions: both partners purified.

Series [6] concerns the target Mycobacterium tuberculosis SecA1(S945C) labeled with Cy5 (Mycobacterium tuberculosis strain H37Rv) (UniProt P9WGP5). In words: MST; Monolith NT.115; unlabeled protein (1 nM to 5 μM) titrated into 25 nM Cy5-labeled protein, mixed in 300 mM KCl, then diluted into low salt buffer (25 mM HEPES-KOH pH 7.5, 30 mM KCl, 2 mM MgCl2, 50 mM arginine); Hill fit, apparent Kd; dimer to monomers. This is another data set of the same source.

Series [7] addresses T1, Mycobacterium tuberculosis SecA2(S802C) …. Described as above. As to conditions: both partners purified.

For the molecule “Mycobacterium tuberculosis SecA1 (unlabeled) (from UniProt P9WGP5 1-949) (natural protein)”, the Kd came out at 298 nM in series [1], 65 nM in series [2] and 438 nM in series [3].

B1: Mycobacterium tuberculosis SecA2(S802C) labeled with AlexaFluor 488 (protein)
chain: MVPKTTRAQPGRLSSRFWRLLGASTEKNRSRSLADVTASAEYDKEAADLSDEKLRKAAGLLNLDDLAESADIPQFLAIAREAAERRTGLRPFDVQLLGALRMLAGDVIEMATGEGKTLAGAIAAAGYALAGRHVHVVTINDYLARRDAEWMGPLLDAMGLTVGWITADSTPDERRTAYDRDVTYASVNEIGFDVLRDQLVTDVNDLVSPNPDVALIDEADSVLVDEALVPLVLAGTTHRETPRLEIIRLVAELVGDKDADEYFATDSDNRNVHLTEHGARKVEKALGGIDLYSEEHVGTTLTEVNVALHAHVLLQRDVHYIVRDDAVHLINASRGRIAQLQRWPDGLQAAVEAKEGIETTETGEVLDTITVQALINRYATVCGMTGTALAAGEQLRQFYQLGVSPIPPNKPNIREDEADRVYITTAAKNDGIVEHITEVHQRGQPVLVGTRDVAESEELHERLVRRGVPAVVLNAKNDAEEARVIAEAGKYGAVTVSTQMAGRGTDIRLGGSDEADHDRVAELGGLHVVGTGRHHTERLDNQLRGRAGRQGDPGSSVFFSSWEDDVVAANLDHNKLPMATDENGRIVSPRTGSLLDHAQRVAEGRLLDVHANTWRYNQLIAQQRAIIVERRNTLLRTVTAREELAELAPKRYEELSDKVSEERLETICRQIMLYHLDRGWADHLAYLADIRESIHLRALGRQNPLDEFHRMAVDAFASLAADAIEAAQQTFETANVLDHEPGLDLSKLARPTSTWTYMVNDNPLSDDTLSALCLPGVFR
As to B1, in series [4], the “percent of all proteins co-migrating as heterodimers” value is 12% of all proteins co-migrated as heterodimers.

B2: Mycobacterium tuberculosis SecA2 (unlabeled) (natural protein)
chain: MVPKTTRAQPGRLSSRFWRLLGASTEKNRSRSLADVTASAEYDKEAADLSDEKLRKAAGLLNLDDLAESADIPQFLAIAREAAERRTGLRPFDVQLLGALRMLAGDVIEMATGEGKTLAGAIAAAGYALAGRHVHVVTINDYLARRDAEWMGPLLDAMGLTVGWITADSTPDERRTAYDRDVTYASVNEIGFDVLRDQLVTDVNDLVSPNPDVALIDEADSVLVDEALVPLVLAGTTHRETPRLEIIRLVAELVGDKDADEYFATDSDNRNVHLTEHGARKVEKALGGIDLYSEEHVGTTLTEVNVALHAHVLLQRDVHYIVRDDAVHLINASRGRIAQLQRWPDGLQAAVEAKEGIETTETGEVLDTITVQALINRYATVCGMTGTALAAGEQLRQFYQLGVSPIPPNKPNIREDEADRVYITTAAKNDGIVEHITEVHQRGQPVLVGTRDVAESEELHERLVRRGVPAVVLNAKNDAEEARVIAEAGKYGAVTVSTQMAGRGTDIRLGGSDEADHDRVAELGGLHVVGTGRHHTERLDNQLRGRAGRQGDPGSSVFFSSWEDDVVAANLDHNKLPMATDENGRIVSPRTGSLLDHAQRVAEGRLLDVHANTWRYNQLIAQQRAIIVERRNTLLRTVTAREELAELAPKRYEELSDKVSEERLETICRQIMLYHLDRGWADHLAYLADIRESIHLRALGRQNPLDEFHRMAVDAFASLAADAIEAAQQTFETANVLDHEPGLDLSKLARPTSTWTYMVNDNPLSDDTLSALSLPGVFR
notes: No tag; molecular mass 85 kDa on SDS-PAGE; also called PIP152
As to B2, the Kd in series [5] amounted to 618 ± 36.5 nM; in series [6], 378 nM; in series [7], 161 ± 6.2 nM.

The record behind these values is paper PMC4457860, “In Vitro Interaction of the Housekeeping SecA1 with the Accessory SecA2 Protein of Mycobacterium tuberculosis” (PLoS ONE, 2015).
